From the supplement of paper PMC5998384

Experiments:
HeLa Kyoto [1] = assay: solubility change mitosis vs G1/S (difference of NP-40 vs SDS log2 ratios) (log2 ratio difference); higher = more soluble in mitosis
HeLa Kyoto [2] = assay: thermal stability score vs G1/S (z-score of summed log2 fold changes over temperatures); higher = more thermally stable than in G1/S
HeLa Kyoto [3] = assay: solubility in G1/S (NP-40 vs SDS abundance) (log2 ratio); higher = more soluble; settings: cell cycle stage: G1/S
HeLa Kyoto [4] = assay: melting temperature (median over replicates), in situ; higher = more thermally stable
[5] = cell cycle stage: early G1 (4.5 h after nocodazole release)
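Throughout, for melting temperature (median over replicates), in situ: HeLa Kyoto cells synchronized by double thymidine or nocodazole block, proteins quantified by TMT10plex mass spectrometry, three independent biological replicates.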
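Throughout, for solubility change mitosis vs G1/S (difference of NP-40 vs SDS log2 ratios): synchronized HeLa Kyoto cells (double thymidine block for G1/S, nocodazole release for mitosis), protein amounts in NP-40 versus SDS lysates quantified by mass spectrometry, three biological replicates.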
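Throughout, for solubility in G1/S (NP-40 vs SDS abundance): HeLa Kyoto cells arrested at G1/S by double thymidine block, proteins quantified by TMT10plex mass spectrometry in mild NP-40 versus SDS extracts, three biological replicates.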
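Throughout, for thermal stability score vs G1/S (z-score of summed log2 fold changes over temperatures): synchronized HeLa Kyoto cells, proteins quantified by TMT10plex mass spectrometry, three biological replicates, mitosis taken 0.5 h after nocodazole release, G1/S directly after double thymidine block.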

Row | Sequence | solubility change mitosis (log2) (HeLa Kyoto [1]) | thermal stability score (HeLa Kyoto [2]; [5]) | thermal stability score (HeLa Kyoto [2]; cell cycle stage: mitosis) | solubility in G1/S (log2) (HeLa Kyoto [3]) | melting temperature (HeLa Kyoto [4]; cell cycle stage: G1/S) | melting temperature (HeLa Kyoto [4]; cell cycle stage: mitosis)
1 | MAVLLLLLRALRRGPGPGPRPLWGPGPAWSPGFPARPGRGRPYMASRPPGDLAEAGGRALQSLQLRLLTPTFEGINGLLLKQHLVQNPVRLWQLLGGTFYFNTSRLKQKNKEKDKSKGKAPEEDEEERRRRERDDQMYRERLRTLLVIAVVMSLLNALSTSGGSISWNDFVHEMLAKGEVQRVQVVPESDVVEVYLHPGAVVFGRPRLALMYRMQVANIDKFEEKLRAAEDELNIEAKDRIPVSYKRTGFFGNALYSVGMTAVGLAILWYVFRLAGMTGREGGFSAFNQLKMARFTIVDGKMGKGVSFKDVAGMHEAKLEVREFVDYLKSPERFLQLGAKVPKGALLLGPPGCGKTLLAKAVATEAQVPFLAMAGPEFVEVIGGLGAARVRSLFKEARARAPCIVYIDEIDAVGKKRSTTMSGFSNTEEEQTLNQLLVEMDGMGTTDHVIVLASTNRADILDGALMRPGRLDRHVFIDLPTLQERREIFEQHLKSLKLTQSSTFYSQRLAELTPGFSGADIANICNEAALHAAREGHTSVHTLNFEYAVERVLAGTAKKSKILSKEEQKVVAFHESGHALVGWMLEHTEAVMKVSITPRTNAALGFAQMLPRDQHLFTKEQLFERMCMALGGRASEALSFNEVTSGAQDDLRKVTRIAYSMVKQFGMAPGIGPISFPEAQEGLMGIGRRPFSQGLQQMMDHEARLLVAKAYRHTEKVLQDNLDKLQALANALLEKEVINYEDIEALIGPPPHGPKKMIAPQRWIDAQREKQDLGEEETEETQQPPLGGEEPTWPK [SPG7] | -0.102 | 2.94 | 1.55 | 0.0611 | 51.2 °C | 51.9 °C
2 | MAVRSLWAGRLRVQRLLAWSAAWESKGWPLPFSTATQRTAGEDCRSEDPPDELGPPLAERALRVKAVKLEKEVQDLTVRYQRAIADCENIRRRTQRCVEDAKIFGIQSFCKDLVEVADILEKTTECISEESEPEDQKLTLEKVFRGLLLLEAKLKSVFAKHGLEKLTPIGDKYDPHEHELICHVPAGVGVQPGTVALVRQDGYKLHGRTIRLARVEVAVESQRRL [GRPEL2] | -0.104 | -0.696 | 2.19 | 0.335 | – | 48.4 °C
3 | MAVTALAARTWLGVWGVRTMQARGFGSDQSENVDRGAGSIREAGGAFGKREQAEEERYFRAQSREQLAALKKHHEEEIVHHKKEIERLQKEIERHKQKIKMLKHDD [ATPIF1] | 0.408 | 3.16 | -2.08 | 0.903 | 56.8 °C | 56.9 °C
4 | MAVTGWLESLRTAQKTALLQDGRRKVHYLFPDGKEMAEEYDEKTSELLVRKWRVKSALGAMGQWQLEVGDPAPLGAGNLGPELIKESNANPIFMRKDTKMSFQWRIRNLPYPKDVYSVSVDQKERCIIVRTTNKKYYKKFSIPDLDRHQLPLDDALLSFAHANCTLIISYQKPKEVVVAESELQKELKKVKTAHSNDGDCKTQ [DPCD] | -0.0049 | 0.4 | 0.716 | 0.223 | 49.9 °C | 49 °C
5 | MAVVAAAAGWLLRLRAAGAEGHWRRLPGAGLARGFLHPAATVEDAAQRRQVAHFTFQPDPEPREYGQTQKMNLFQSVTSALDNSLAKDPTAVIFGEDVAFGGVFRCTVGLRDKYGKDRVFNTPLCEQGIVGFGIGIAVTGATAIAEIQFADYIFPAFDQIVNEAAKYRYRSGDLFNCGSLTIRSPWGCVGHGALYHSQSPEAFFAHCPGIKVVIPRSPFQAKGLLLSCIEDKNPCIFFEPKILYRAAAEEVPIEPYNIPLSQAEVIQEGSDVTLVAWGTQVHVIREVASMAKEKLGVSCEVIDLRTIIPWDVDTICKSVIKTGRLLISHEAPLTGGFASEISSTVQEECFLNLEAPISRVCGYDTPFPHIFEPFYIPDKWKCYDALRKMINY [BCKDHB] | -0.179 | -0.96 | -1.83 | -0.09 | 52.6 °C | 52 °C
6 | MAVYRAALGASLAAARLLPLGRCSPSPAPRSTLSGAAMEPAPRWLAGLRFDNRALRALPVEAPPPGPEGAPSAPRPVPGACFTRVQPTPLRQPRLVALSEPALALLGLGAPPAREAEAEAALFFSGNALLPGAEPAAHCYCGHQFGQFAGQLGDGAAMYLGEVCTATGERWELQLKGAGPTPFSRQADGRKVLRSSIREFLCSEAMFHLGVPTTRAGACVTSESTVVRDVFYDGNPKYEQCTVVLRVASTFIRFGSFEIFKSADEHTGRAGPSVGRNDIRVQLLDYVISSFYPEIQAAHASDSVQRNAAFFREVTRRTARMVAEWQCVGFCHGVLNTDNMSILGLTIDYGPFGFLDRYDPDHVCNASDNTGRYAYSKQPEVCRWNLRKLAEALQPELPLELGEAILAEEFDAEFQRHYLQKMRRKLGLVQVELEEDGALVSKLLETMHLTGADFTNTFYLLSSFPVELESPGLAEFLARLMEQCASLEELRLAFRPQMDPRQLSMMLMLAQSNPQLFALMGTRAGIARELERVEQQSRLEQLSAAELQSRNQGHWADWLQAYRARLDKDLEGAGDAAAWQAEHVRVMHANNPKYVLRNYIAQNAIEAAERGDFSEVRRVLKLLETPYHCEAGAATDAEATEADGADGRQRSYSSKPPLWAAELCVTUSS [SELO] | -0.115 | 3 | 3.57 | -0.0646 | 47.8 °C | 49.1 °C
7 | MAVYVGMLRLGRLCAGSSGVLGARAALSRSWQEARLQGVRFLSSREVDRMVSTPIGGLSYVQGCTKKHLNSKTVGQCLETTAQRVPEREALVVLHEDVRLTFAQLKEEVDKAASGLLSIGLCKGDRLGMWGPNSYAWVLMQLATAQAGIILVSVNPAYQAMELEYVLKKVGCKALVFPKQFKTQQYYNVLKQICPEVENAQPGALKSQRLPDLTTVISVDAPLPGTLLLDEVVAAGSTRQHLDQLQYNQQFLSCHDPINIQFTSGTTGSPKGATLSHYNIVNNSNILGERLKLHEKTPEQLRMILPNPLYHCLGSVAGTMMCLMYGATLILASPIFNGKKALEAISRERGTFLYGTPTMFVDILNQPDFSSYDISTMCGGVIAGSPAPPELIRAIINKINMKDLVVAYGTTENSPVTFAHFPEDTVEQKAESVGRIMPHTEARIMNMEAGTLAKLNTPGELCIRGYCVMLGYWGEPQKTEEAVDQDKWYWTGDVATMNEQGFCKIVGRSKDMIIRGGENIYPAELEDFFHTHPKVQEVQVVGVKDDRMGEEICACIRLKDGEETTVEEIKAFCKGKISHFKIPKYIVFVTNYPLTISGKIQKFKLREQMERHLNL [ACSF2] | -0.0628 | 0.261 | 0.668 | 0.27 | 49.4 °C | 49.8 °C
8 | MAWRRREASVGARGVLALALLALALCVPGARGRALEWFSAVVNIEYVDPQTNLTVWSVSESGRFGDSSPKEGAHGLVGVPWAPGGDLEGCAPDTRFFVPEPGGRGAAPWVALVARGGCTFKDKVLVAARRNASAVVLYNEERYGNITLPMSHAGTGNIVVIMISYPKGREILELVQKGIPVTMTIGVGTRHVQEFISGQSVVFVAIAFITMMIISLAWLIFYYIQRFLYTGSQIGSQSHRKETKKVIGQLLLHTVKHGEKGIDVDAENCAVCIENFKVKDIIRILPCKHIFHRICIDPWLLDHRTCPMCKLDVIKALGYWGEPGDVQEMPAPESPPGRDPAANLSLALPDDDGSDDSSPPSASPAESEPQCDPSFKGDAGENTALLEAGRSDSRHGGPIS [RNF149] | -0.076 | -0.202 | -3.79 | -0.136 | 53.8 °C | 54.1 °C
9 | MCDFTEDQTAEFKEAFQLFDRTGDGKILYSQCGDVMRALGQNPTNAEVLKVLGNPKSDEMNVKVLDFEHFLPMLQTVAKNKDQGTYEDYVEGLRVFDKEGNGTVMGAEIRHVLVTLGEKMTEEEVEMLVAGHEDSNGCINYEAFVRHILSG [MYL6] | 0.21 | -3.33 | -1.53 | -0.12 | 51.8 °C | 51.7 °C
10 | MCDIEEATNQLLDVNLHENQKSVQVTESDLGSESELLVTIGATVPTGFEQTAADEVREKLGSSCKISRDRGKIYFVISVESLAQVHCLRSVDNLFVVVQEFQDYQFKQTKEEVLKDFEDLAGKLPWSNPLKVWKINASFKKKKAKRKKINQNSSKEKINNGQEVKIDQRNVKKEFTSHALDSHILDYYENPAIKEDVSTLIGDDLASCKDETDESSKEETEPQVLKFRVTCNRAGEKHCFTSNEAARDFGGAVQDYFKWKADMTNFDVEVLLNIHDNEVIVGIALTEESLHRRNITHFGPTTLRSTLAYGMLRLCDPLPYDIIVDPMCGTGAIPIEGATEWSDCFHIAGDNNPLAVNRAANNIASLLTKSQIKEGKPSWGLPIDAVQWDICNLPLRTGSVDIIVTDLPFGKRMGSKKRNWNLYPACLREMSRVCTPTTGRAVLLTQDTKCFTKALSGMRHVWRKVDTVWVNVGGLRAAVYVLIRTPQAFVHPSEQDGERGTLWQCKE [THUMPD3] | -0.147 | -1 | -2.07 | 0.109 | 52.9 °C | 53 °C
11 | MCGDCVEKEYPNRGNTCLENGSFLLNFTGCAVCSKRDFMLITNKSLKEEDGEEIVTYDHLCKNCHHVIARHEYTFSIMDEFQEYTMLCLLCGKAEDTISILPDDPRQMTLLF [CHURC1] | -0.361 | -2.8 | -3.3 | 0.0387 | 51.5 °C | 52.5 °C
